Laboratory results published in paper PMC12728192 (2025).
Ends that are not written are not given here.

Experiments:
[1] = biological target: T1, Thermothelomyces thermophilus SAM complex (sorting and assembly machinery complex; Sam50:Sam35:Sam37, monomer) (Thermothelomyces thermophilus); test: MST; replicate 6; detergent
[2] = biological target: T1, Thermothelomyces thermophilus SAM …; test: MST; replicate 1; detergent
[3] = biological target: T1, Thermothelomyces thermophilus SAM …; test: MST; replicate 3; detergent

T1 sequence (chain, as listed by the source, chain 1 of 3): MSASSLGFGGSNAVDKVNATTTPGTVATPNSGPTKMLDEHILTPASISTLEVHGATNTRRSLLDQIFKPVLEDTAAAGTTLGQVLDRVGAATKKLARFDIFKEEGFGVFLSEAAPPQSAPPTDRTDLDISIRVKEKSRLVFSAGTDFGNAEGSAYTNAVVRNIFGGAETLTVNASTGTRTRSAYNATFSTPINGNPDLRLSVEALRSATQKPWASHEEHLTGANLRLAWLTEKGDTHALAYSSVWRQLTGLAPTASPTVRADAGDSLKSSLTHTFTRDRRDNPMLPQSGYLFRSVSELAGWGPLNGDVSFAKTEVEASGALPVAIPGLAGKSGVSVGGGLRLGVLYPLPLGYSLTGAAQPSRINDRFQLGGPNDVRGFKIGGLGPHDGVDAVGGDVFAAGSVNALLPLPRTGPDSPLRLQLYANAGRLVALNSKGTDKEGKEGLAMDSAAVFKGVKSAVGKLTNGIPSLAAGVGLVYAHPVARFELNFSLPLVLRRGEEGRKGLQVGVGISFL
T1 sequence (chain, as listed by the source, chain 2 of 3): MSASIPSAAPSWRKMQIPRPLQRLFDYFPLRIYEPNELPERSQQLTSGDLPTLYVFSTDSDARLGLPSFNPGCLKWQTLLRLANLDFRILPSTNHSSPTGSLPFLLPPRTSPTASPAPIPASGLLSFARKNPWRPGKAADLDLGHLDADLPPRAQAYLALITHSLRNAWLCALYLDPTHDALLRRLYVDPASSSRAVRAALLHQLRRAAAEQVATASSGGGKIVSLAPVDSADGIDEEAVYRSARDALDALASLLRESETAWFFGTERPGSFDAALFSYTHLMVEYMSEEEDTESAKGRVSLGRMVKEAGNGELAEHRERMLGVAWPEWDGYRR
T1 sequence (chain, as listed by the source, chain 3 of 3): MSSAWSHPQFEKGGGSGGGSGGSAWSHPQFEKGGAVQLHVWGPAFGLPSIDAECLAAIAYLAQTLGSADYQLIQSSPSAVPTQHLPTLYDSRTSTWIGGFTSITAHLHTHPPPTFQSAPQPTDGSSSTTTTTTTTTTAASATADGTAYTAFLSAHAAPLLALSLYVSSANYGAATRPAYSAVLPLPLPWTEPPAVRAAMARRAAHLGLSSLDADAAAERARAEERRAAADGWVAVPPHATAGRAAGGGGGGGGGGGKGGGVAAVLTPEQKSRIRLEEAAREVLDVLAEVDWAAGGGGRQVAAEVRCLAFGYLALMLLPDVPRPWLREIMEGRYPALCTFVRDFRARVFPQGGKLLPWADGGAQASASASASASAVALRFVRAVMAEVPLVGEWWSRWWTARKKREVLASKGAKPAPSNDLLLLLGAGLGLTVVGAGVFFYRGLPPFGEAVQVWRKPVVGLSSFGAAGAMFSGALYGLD

Binder	Kd [1] [nM]	Kd [2] [nM]	Kd [3] [nM]
WNWSKSF (also: backbone cyclizations, places not given here) [darobactin A]	166	149	
WNWSKSF [linear darobactin]			491000
